Results on six molecules are retold here after doi:10.1101/2024.04.26.591257 (bioRxiv, 2024).

Assay [1] has as its target BRAVO-mV (BRASSINOSTEROIDS AT VASCULAR AND ORGANIZING CENTRE fused to mVenus) (Arabidopsis thaliana) (UniProt Q6R053). Kind of assay: FRET or BRET.
The target in assay [2] is WOX5-mV(N)/PLT3-mV(C) heterodimer (split mVenus donor) (Arabidopsis thaliana) (UniProt Q8H1D2). Kind of assay: split reporter.
Assay [3] deals with T1, TPL-mV (TOPLESS fused to mVenus) (Arabidopsis thaliana, UniProt Q94AI7 1-1131).
T1 sequence (looked up): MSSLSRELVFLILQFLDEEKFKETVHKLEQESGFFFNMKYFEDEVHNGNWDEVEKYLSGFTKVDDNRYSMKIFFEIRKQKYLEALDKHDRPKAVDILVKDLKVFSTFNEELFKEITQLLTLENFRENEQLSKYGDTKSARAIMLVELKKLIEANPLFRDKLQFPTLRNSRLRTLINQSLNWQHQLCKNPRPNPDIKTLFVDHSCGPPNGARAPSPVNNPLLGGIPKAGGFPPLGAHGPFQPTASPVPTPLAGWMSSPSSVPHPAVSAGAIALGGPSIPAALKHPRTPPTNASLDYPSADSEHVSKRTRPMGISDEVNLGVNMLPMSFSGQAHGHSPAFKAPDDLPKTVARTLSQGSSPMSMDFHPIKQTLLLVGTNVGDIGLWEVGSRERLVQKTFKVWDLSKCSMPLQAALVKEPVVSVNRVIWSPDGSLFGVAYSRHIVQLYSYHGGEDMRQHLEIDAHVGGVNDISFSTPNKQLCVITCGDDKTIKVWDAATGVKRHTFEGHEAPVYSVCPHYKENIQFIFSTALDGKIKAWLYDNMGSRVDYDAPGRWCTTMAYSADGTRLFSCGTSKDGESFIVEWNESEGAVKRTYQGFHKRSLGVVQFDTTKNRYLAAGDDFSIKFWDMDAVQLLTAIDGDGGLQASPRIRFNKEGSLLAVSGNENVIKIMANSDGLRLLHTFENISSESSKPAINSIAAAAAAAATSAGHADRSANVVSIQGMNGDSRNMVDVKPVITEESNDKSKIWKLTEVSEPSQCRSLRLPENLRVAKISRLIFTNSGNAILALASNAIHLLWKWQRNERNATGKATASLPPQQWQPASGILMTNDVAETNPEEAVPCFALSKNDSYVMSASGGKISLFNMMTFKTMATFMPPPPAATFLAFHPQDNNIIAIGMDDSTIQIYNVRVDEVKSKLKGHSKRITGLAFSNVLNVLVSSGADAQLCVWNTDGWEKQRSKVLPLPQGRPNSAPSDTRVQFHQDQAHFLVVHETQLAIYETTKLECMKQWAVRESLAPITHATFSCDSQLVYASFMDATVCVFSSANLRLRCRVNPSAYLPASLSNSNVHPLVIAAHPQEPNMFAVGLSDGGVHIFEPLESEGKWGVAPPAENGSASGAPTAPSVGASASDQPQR
Kind of assay: FRET or BRET.

In assay [4] the target is BES1D-mV (BES1D fused to mVenus) (Arabidopsis thaliana) (UniProt Q9LN63). Kind of assay: FRET or BRET. A general note: BRET reads energy transfer from a luciferase to a nearby fluorophore.
BES1D-mV (BES1D fused to mVenus) (Arabidopsis thaliana), sequence (Q9LN63 whole entry, the tested form may be a part): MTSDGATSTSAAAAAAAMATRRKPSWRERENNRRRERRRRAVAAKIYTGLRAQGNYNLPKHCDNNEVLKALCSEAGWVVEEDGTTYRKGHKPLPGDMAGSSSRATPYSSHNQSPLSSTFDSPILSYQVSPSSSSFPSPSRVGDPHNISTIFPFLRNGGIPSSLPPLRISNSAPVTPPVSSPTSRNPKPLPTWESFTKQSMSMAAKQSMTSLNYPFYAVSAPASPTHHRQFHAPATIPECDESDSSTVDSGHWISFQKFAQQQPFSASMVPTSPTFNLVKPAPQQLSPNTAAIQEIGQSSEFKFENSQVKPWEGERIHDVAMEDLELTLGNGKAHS
The target in assay [5] is T2, BRAVO-mV (BRASSINOSTEROIDS AT VASCULAR AND ORGANIZING CENTRE fused to mVenus) (Arabidopsis thaliana, UniProt Q6R053 1-323).
T2 sequence (looked up): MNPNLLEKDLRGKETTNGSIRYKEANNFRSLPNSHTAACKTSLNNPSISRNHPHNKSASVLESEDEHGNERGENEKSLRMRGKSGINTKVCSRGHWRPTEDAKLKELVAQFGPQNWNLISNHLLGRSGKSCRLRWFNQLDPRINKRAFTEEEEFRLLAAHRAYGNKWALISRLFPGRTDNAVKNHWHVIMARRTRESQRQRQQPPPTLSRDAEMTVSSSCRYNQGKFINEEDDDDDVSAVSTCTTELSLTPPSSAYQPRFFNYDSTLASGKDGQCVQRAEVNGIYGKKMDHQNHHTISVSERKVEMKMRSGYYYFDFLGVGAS
Kind of assay: FRET or BRET.

For assay [6], the target named is T3, BRAVO-mV(N)/PLT3-mV(C) heterodimer (split mVenus donor) (Arabidopsis thaliana, UniProt Q6R053 1-323; Q52QU2 1-581).
T3 sequence (looked up) 1: T2 sequence (looked up)
T3 sequence (looked up) 2: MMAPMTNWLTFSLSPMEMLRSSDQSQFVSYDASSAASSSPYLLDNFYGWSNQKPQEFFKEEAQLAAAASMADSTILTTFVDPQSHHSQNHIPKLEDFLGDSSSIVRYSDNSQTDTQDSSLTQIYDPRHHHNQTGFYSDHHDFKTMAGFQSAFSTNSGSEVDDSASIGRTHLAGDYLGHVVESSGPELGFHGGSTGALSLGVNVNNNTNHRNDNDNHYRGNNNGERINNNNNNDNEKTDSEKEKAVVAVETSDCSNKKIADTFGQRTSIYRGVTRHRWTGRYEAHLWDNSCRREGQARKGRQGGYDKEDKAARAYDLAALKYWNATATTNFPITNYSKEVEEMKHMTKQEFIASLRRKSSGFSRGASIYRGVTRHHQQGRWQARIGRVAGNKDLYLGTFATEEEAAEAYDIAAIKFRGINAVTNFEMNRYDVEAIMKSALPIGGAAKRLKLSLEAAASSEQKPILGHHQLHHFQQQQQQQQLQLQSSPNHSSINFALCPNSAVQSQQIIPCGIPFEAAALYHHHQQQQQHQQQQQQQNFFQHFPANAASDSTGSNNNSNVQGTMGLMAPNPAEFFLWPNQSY
Kind of assay: split reporter.

The target in assay [7] is T4, WOX5-mV(N)/PLT3-mV(C) heterodimer (split mVenus donor) (Arabidopsis thaliana, UniProt Q8H1D2 1-182; Q52QU2 1-581).
T4 sequence (looked up) 1: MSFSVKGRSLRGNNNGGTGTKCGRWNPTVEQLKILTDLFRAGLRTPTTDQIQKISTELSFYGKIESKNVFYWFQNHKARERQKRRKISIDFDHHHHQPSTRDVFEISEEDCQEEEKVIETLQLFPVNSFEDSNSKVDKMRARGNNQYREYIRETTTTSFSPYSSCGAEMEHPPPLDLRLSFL
T4 sequence (looked up) 2: T3 sequence (looked up) 2
Kind of assay: split reporter.

Take “PLT3ΔPrD-mCh (PLT3 with its prion-like domains deleted, fused to mCherry) (from UniProt Q9ZNS0 1-508) (natural protein)”: the binding [%] (FRET-FLIM) in assay [1] is 11.7%.

With “BES1D-mCh (BRI1-EMS-SUPPRESSOR 1, BES1D form, fused to mCherry) (from UniProt Q9LN63 1-335) (natural protein)”, the binding [%] (FRET-FLIM) in assay [1] was found to be 27.4%. In assay [2], this molecule yielded a binding [%] (BiFC-FRET) of 18.7%.

B1: PLT3-mCh (PLETHORA 3 fused to mCherry) (natural protein, Arabidopsis thaliana, UniProt Q52QU2 1-581, looked up)
chain: T3 sequence (looked up) 2
In the case of B1, the “binding [%] (FRET-FLIM)” value came to 13.5 ± 4.3% in assay [3] and 16.9% in assay [4].

B2: TPL-mCh (TOPLESS fused to mCherry) (natural protein, Arabidopsis thaliana, UniProt Q94AI7 1-1131, looked up)
chain: T1 sequence (looked up)
With B2, the “binding [%] (FRET-FLIM)” value in assay [5] was determined as 26.7 ± 9.8%. Further, the “binding [%] (BiFC-FRET)” value is 21.1 ± 8.3% in assay [6] and 23.3 ± 8.3% in assay [7].

B3: BRAVO-mCh (BRAVO fused to mCherry) (natural protein, Arabidopsis thaliana, UniProt Q6R053 1-323, looked up)
chain: T2 sequence (looked up)
Consider B3, for which the “binding [%] (BiFC-FRET)” value in assay [7] came to 36.3 ± 10.7%.

B4: WOX5-mCh (WUSCHEL-RELATED HOMEOBOX 5 fused to mCherry) (natural protein, Arabidopsis thaliana, UniProt Q8H1D2 1-182, looked up)
chain: T4 sequence (looked up) 1
Take B4: the “binding [%] (FRET-FLIM)” value in assay [5] is 22.4 ± 14.1%. The “binding [%] (BiFC-FRET)” value in assay [6] turned out to be 29.8 ± 10.6%.
